The record followed here is paper PMC7925532.

This test has as its target EGFR Kinase Domain Duplication (EGFR-KDD), eGFP or mCherry fusion (human) (UniProt P00533). In words: PIE-FCCS (pulsed interleaved excitation fluorescence cross-correlation spectroscopy); live COS-7 cells co-expressing eGFP and mCherry fusions (1:1 plasmids), peripheral membrane, 37 °C, Opti-MEM; stimulated with 2 μg/mL recombinant human EGF; median fraction correlated (ƒc).

With “EGFR Kinase Domain Duplication (EGFR-KDD), eGFP or mCherry fusion (from UniProt P00533 25-1038; P00533 688-1210) (receptor)”, the median cross-correlation value (ƒc) was 0.17.
